Where a chain is given by its changes, count along the chain named.
B1: 6H6 (VHH)
VHH: EVQLMESGGGLVQAGGSLRLSCAASGRTFSSYAMGWFRQAPGKERENVAAISSSGGYTYYPDSVKGRFTISRDTAKNTVYLQMNSLKPDDTAVYYCAGTQPNFGWQLLLLQTEYDYWGQGTQVTVSS
notes: anti-HGF Nanobody clone; not shown: c-myc and His6 tags
B2: 1E9 (VHH)
VHH: EVQLVESGGGLVQPGGSLRLSCAASGFTLDHYTIGWFRQAPGNEREGVSCISSLDGSTYYADSVKGRFTISRDNAKDTVYLQMNSLKPEDTAVYYCAVAGCGAYGLIPYDYWGQGTQVTVSS
notes: as for B1
B3: 9H5 (VHH)
VHH: EVQLVESGGGLVQPGGSLRLSCAASGSIFNLNPMGWYRQAPGKQRELVATVTGEGRTNYSDSVKGRFTISRDNAKNTVYLQMNSLKPEDTAVYYCNAAFWAYDDAYWGQGTQVTVSS
notes: as for B1
B4: 6E10 (VHH)
VHH: EVQLVESGGGLVQAGGSLRLSCAASGRTDSSYAMGWFRQAPGKEHEFVAAISWSGGSTYYADSVKGRFTISRDNAKNTLYLQMNSLKPEDTAVYYCGASYRWGITHEYEYWGQGTQVTVSS
notes: as for B1
B5: 1E2 (VHH)
VHH: EVQLVESGGGLVQPGGSLRLSCAASGRTFSSYAMGWFRQAPGKEREFVAGISWSGSSSYYADSVKGRFTISRDNAKNTVYLQMNSLKPEDTAVYYCAADPVGRADLYEYDYWGQGTQVTVSS
notes: as for B1
B6: 6B2 (VHH)
VHH: B5 VHH with P14A, G50A, S52N, S56D, S58T, D99G, P100D, A104P
notes: as for B1
B7: 9G6 (VHH)
VHH: EVQLVESGGGLVQAGGSLRLSCAASGRTLSDYTMGWFRQAPGKEREFVARINTGGPITSYSDSVKGRFTISRDNAKNTVYLQMNSLKPEDTAVYNCAARLPTKMSPRDYSSYAYRGQGTQVTVSS
notes: as for B1
B8: 6G6 (VHH)
VHH: EVQLVESGGGLAQAGGSLRLSCAASGRSLSNYAMGWFRQAPGKEREIVCAISRSGSITTYADSVKGRFTIAKDNAANTVYLQMNSLKPEDTAAYYCAADPMYYGIPDQNWDYWGQGTQVTVSS
notes: as for B1
B9: 1F3 (VHH)
VHH 1: EVQLVESGGGLVQSGGSLKLSCAASGFTFSNYFMSWVRQTPEKRLEWVAYISSGGGSTYYPDSVKGRFTISRDNAKNTLYLQMSSLKSEDTAMYYCVRQGDGYYGDYAMDYWGQGTSVTVSS
VHH 2: DIQMTQSPASLSVSVGETVTITCRASENIYSNLAWYQQKQGKSPQLLVYDATHLPDGVPSRFSGSGSGTQFSLKINSLQSEDFGSYYCQHFWGTPYTFGGGTRLEIKR
B10: 5G9 (VHH)
VHH: EVQLVESGGGLVQTGGSLRLSCAASGRTFSPYAAGWFRHAPGKEREFVTAITWSGGSTYYADSVKGRFTISRDNAKNTVYLQMNSLKPEDTAVYYCAASYRWGITHEFDYWGQGTQVTVSS
notes: anti-HGF Nanobody clone, tested as periplasmic extract; not shown: c-myc and His6 tags
B11: 6B6 (VHH)
VHH: EVQLVESGGGLVQPGGSLRLSCAASGFTFDDYAMSWGRQAPGKGLEWVSAISWNGGSTYYAESMKGRFTVSRDNAKNTLYLQMNSLKSEDTAVYYCAKALDPLGVLAGTSGIYDYWGQGTQVTVSS
notes: as for B10
B12: 5C7 (VHH)
VHH: EVQLVESGGGLVQAGDSLRLSCAASGGTFGSSHMAWFRQVPEKEREFVAAISRSGGTTYYADSVKGRCTISRDNAKNTVYLQMNSLKPEDTAVYYCAAARFWGSTSTRMDDYQYWGQGTQVTVSS
notes: as for B1
B13: 1C7 (VHH)
VHH: B5 VHH with P14A, S56G, S58T, Q82R
notes: as for B10
B14: 10G3 (VHH)
VHH: B5 VHH with P14A, A24D, I51V, S52N, S56D, S58T, T91A
notes: as for B10
B15: 6F6 (VHH)
VHH: EVQLVESGGGLVQPGGSLRLSCAASGSILGINAMGWYRQAPGKQRELVAVINSGGSTNYADSVKGRFTISRDNAKNTVYLQMNSLKPEDTAVYYCNADEWGDYPGQVYDYWGQGTQVTVSS
notes: as for B1
B16: 5B7 (VHH)
VHH: B8 VHH
notes: as for B10
B17: 5E8 (VHH)
VHH: B8 VHH
notes: as for B10
B18: 6A6 (VHH)
VHH: B8 VHH
notes: as for B10
B19: 9E6 (VHH)
VHH: B8 VHH
notes: as for B10
B20: 5D10 (VHH)
VHH: B8 VHH
notes: as for B10
B21: 6E6 (VHH)
VHH: B8 VHH
notes: as for B10
B22: 6E11 (VHH)
VHH: B8 VHH
notes: as for B10
B23: 7G6 (VHH)
VHH: EVQLVESGGGLVQAGGSLRLSCAVSGRTFSPYTMGWFRRAPGKEREFVAARTWSGGVAWYADSVKGRFTISSDNAENMVYLQMNSLKPEDTAVYYCAAKSPGRTYSPREERAYARWGQGTQVTVSS
notes: as for B1

Target: T1, human HGF (R&D Systems, 294-HG/CF) (human, UniProt P14210 32-728)
T1 construct: The entry begins at QRKRR, without signal peptide; Amine-coupled to the chip in SPR and biotinylated in AlphaScreen; also called rec hHGF (R&D systems)
T1 sequence (P14210 32-728 limits assumed): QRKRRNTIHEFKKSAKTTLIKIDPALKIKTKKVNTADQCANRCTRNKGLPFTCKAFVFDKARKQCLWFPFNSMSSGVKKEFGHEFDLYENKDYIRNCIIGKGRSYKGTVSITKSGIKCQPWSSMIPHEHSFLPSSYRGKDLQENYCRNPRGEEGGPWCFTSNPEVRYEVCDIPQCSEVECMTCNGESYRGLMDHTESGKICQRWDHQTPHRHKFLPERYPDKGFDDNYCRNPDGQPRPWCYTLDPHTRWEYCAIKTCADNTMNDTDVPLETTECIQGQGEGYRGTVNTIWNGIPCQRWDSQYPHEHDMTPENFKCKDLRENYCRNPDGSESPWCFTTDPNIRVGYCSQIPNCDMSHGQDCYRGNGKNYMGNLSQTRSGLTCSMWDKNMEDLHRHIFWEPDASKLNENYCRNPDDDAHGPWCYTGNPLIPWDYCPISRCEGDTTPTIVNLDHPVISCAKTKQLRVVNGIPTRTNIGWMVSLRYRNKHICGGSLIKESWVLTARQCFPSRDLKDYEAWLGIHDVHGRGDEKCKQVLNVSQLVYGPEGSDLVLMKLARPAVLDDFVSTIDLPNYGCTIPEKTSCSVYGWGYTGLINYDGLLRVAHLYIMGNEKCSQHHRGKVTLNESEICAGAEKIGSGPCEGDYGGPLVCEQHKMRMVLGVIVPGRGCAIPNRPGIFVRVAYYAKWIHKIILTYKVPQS
Assay: AlphaScreen competition, biotinylated HGF and c-Met-Fc, dilution series of purified Nanobody
Description: (§1) In brief, 5 μl of 1/5 prediluted periplasmic extract of individual Nanobody clones were incubated with 3 nM biotinylated HGF, 2 nM c-Met-Fc, streptavidin coated donor beads and anti-human IgG1 Fc Nanobody covalently coupled AlphaScreen acceptor beads. Monoclonal antibody clone 24612 (R&D systems) known to inhibit the HGF/c-Met-Fc interaction, was used as a positive control. Assays were read in an Envision AlphaScreen™ option fitted multimode reader (Perkin Elmer). Individual clones were scored as putative HGF/c-Met-Fc interaction inhibiting if the presence of the periplasmic extract decreased the fluorescent signal of the acceptor beads. Both inhibitory and non-inhibitory clones were identified. A 10-fold reduction in signal with respect to the negative control (irrelevant periplasmic extract and buffer) was used to select the HGF/c-Met inhibiting Nanobodies. As a positive control, anti-HGF monoclonal antibody (R&D systems, clone 24612) was included. FIG. 2 depicts an example of screen of periplasmic extracts using AlphaScreen.
(§2) Serial dilutions of purified Nanobodies were then analyzed for their ability to block the interaction of human HGF with c-Met-Fc using the same AlphaScreen™ assay as described above (1.4). […]

IC50 [nM] | Binder
26.7 | B1
4.5 | B2
2.1 | B3
3 | B4
1.8 | B5
2.8 | B6
6.6 | B7
2.8 | B8

Target: T1, human HGF (R&D Systems, 294-HG/CF)
Assay: SPR (Biacore T100), HGF amine-coupled to CM5 chip, periplasmic extract at one dilution
Description: Off-rate constants (Koff) of individual Nanobodies were determined by surface plasmon resonance on a Biacore T100 instrument.
Human HGF (R&D) was amine-coupled to a CM5 sensor chip at a density of 2500 relative units. Remaining reactive groups were inactivated using ethanolamine. Nanobody binding was assessed at a single dilution of periplasmic extract, whereas c-Met was tested with a single concentration of 10 nM. Each sample was injected for 2 min at a flow rate of 45 μl/min to allow for binding to chip-bound antigen. Next, binding buffer without Nanobody was sent over the chip at the same flow rate to allow dissociation of bound Nanobody. After 10 min, remaining bound analyte was removed by injecting regeneration solution (1M NaCl, 50 mM NaOH).

koff [s⁻¹] | Binder
0.0139 | B1
0.00345 | B9
0.00314 | B2
0.00155 | B3
0.0008 | B10
0.000324 | B4
9.37e-06 | B11
0.0019 | B12
0.00312 | B5
0.00286 | B13
0.000377 | B14
0.000774 | B6
0.00107 | B7
0.00545 | B15
0.00178 | B8
0.00175 | B16
0.00163 | B17
0.00164 | B18
0.00218 | B19
0.00199 | B20
0.0017 | B21
0.00168 | B22
0.000936 | B23

Target: T2, human HGF (R&D material and Peprotech material, values averaged over both) (human, UniProt P14210 32-728)
T2 construct: As printed they differ in one letter
T2 sequence (P14210 32-728 limits assumed): as above
Assay: SPR (Biacore T100), purified Nanobody, biphasic dissociation, kd1 fitted 125-185 s after injection start

koff [s⁻¹] | Binder
0.00313 | B1
0.00605 | B12
0.00237 | B7
0.00577 | B15

Target: T2, human HGF (R&D material and Peprotech …)
Assay: SPR (Biacore T100), purified Nanobody, biphasic dissociation, kd2 fitted 300-720 s after injection start

koff [s⁻¹] | Binder
0.00332 | B1
0.000952 | B3
0.000821 | B12
0.00102 | B7
0.00213 | B15

Target: T1, human HGF (R&D Systems, 294-HG/CF)
Assay: AlphaScreen competition, serial dilution of purified Nanobody; inhibition of biotinylated human HGF binding to c-Met-Fc
Description: as §1, §2

IC50 (read off the curve) [nM] | Binder
~10 | B12
~3 | B23

Target: T2, human HGF (R&D material and Peprotech …)
Assay: SPR (Biacore T100), purified Nanobody, average of R&D and Peprotech HGF
Description: Affinity constants (Kd) of individual purified Nanobody clones were determined by surface plasmon resonance on a Biacore T100 instrument essentially as described above. The average was taken of an analysis performed on R&D material and Peprotech material.

Kd [nM] | koff [s⁻¹] | kon [M⁻¹ s⁻¹] | Binder
7.16 | 0.00052 | 92000 | B2
1.14 | 5.5e-05 | 49900 | B4
1.36 | 0.0001 | 75200 | B5
0.08 | 2.15e-06 | 27800 | B6
7.37 | 0.00573 | 753000 | B8
0.67 | 0.000691 | 1.06e+06 | B23

Target: T2, human HGF (R&D material and Peprotech …)
Assay: SPR (Biacore T100), purified Nanobody, biphasic dissociation, kd1 fitted 125-185 s after injection start; kd1: early phase of the bi-phasic dissociation, fitted 125 to 185 seconds after injection start

koff [s⁻¹] | Binder
0.00241 | B3

Target: T2, human HGF (R&D material and Peprotech …)
Assay: SPR (Biacore T100), summary table

koff [s⁻¹] | Kd [nM] | Binder
0.003 | – | B1
0.0005 | 7.16 | B2
0.001 | – | B3
5e-05 | 1.14 | B4
0.0001 | 1.36 | B5
≤ 1e-05 | ≤ 0.08 | B6
0.001 | – | B7
0.006 | 7.37 | B8

— US20150010546A1 (Ablynx, published 2015)
